Reference: article PMC4918640

Biological target: extracellular domain of PDGFRα-Fc conjugated (human) (UniProt P16234)
Test: SPR + BLI

Sequence of UniProt P16234 (P16234 24-528): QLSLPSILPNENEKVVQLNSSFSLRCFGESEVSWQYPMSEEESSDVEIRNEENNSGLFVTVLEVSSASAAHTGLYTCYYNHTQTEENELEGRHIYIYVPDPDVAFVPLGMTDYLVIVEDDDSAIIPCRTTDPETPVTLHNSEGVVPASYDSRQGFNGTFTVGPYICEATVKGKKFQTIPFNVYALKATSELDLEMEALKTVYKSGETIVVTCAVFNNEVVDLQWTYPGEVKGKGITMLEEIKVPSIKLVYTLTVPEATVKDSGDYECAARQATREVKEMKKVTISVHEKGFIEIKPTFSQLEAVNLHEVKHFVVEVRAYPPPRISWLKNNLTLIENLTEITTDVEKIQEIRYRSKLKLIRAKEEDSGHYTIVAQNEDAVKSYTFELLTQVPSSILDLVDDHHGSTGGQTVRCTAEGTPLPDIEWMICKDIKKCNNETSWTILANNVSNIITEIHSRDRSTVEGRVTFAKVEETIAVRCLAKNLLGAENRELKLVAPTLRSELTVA

Substance: soluble gHgLgO trimer (from UniProt P16832;P16750) (complex)
- Kd: 2 nM
